Data as given in publication PMC3587828 (The Journal of Cell Biology, 2013).

Legend:
[1] = biological target: recombinant Cdc42 (Q61L), GST-free (human, UniProt P60953 1-188, Q61L | C188S); assay: pull-down
MBP–Morg1 = biological target: T1, MBP–Morg1 (human, UniProt Q9BRX9 1-315); assay: pull-down
T1 sequence (looked up): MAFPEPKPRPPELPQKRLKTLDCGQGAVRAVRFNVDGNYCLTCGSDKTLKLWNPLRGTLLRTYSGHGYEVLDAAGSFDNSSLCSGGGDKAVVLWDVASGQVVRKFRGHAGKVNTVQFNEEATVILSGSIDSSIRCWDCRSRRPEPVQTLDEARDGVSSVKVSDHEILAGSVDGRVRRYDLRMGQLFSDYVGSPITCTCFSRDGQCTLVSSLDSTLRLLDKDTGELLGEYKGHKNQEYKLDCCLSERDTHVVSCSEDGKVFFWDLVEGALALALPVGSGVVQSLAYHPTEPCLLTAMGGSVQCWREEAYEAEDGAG

recombinant Cdc42 (Q61L), GST-free, sequence (P60953 1-188 Q61L/C188S): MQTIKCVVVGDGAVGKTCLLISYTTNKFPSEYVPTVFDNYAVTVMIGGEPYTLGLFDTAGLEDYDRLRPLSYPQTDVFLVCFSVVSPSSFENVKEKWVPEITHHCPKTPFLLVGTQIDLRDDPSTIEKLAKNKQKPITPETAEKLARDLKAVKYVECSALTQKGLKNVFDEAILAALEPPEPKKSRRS

B1: GST–Par6β (126–254) (domain or fragment, human, UniProt Q9BYG5 126-254, looked up)
chain: RKKPHIVISMPQDFRPVSSIIDVDILPETHRRVRLYKYGTEKPLGFYIRDGSSVRVTPHGLEKVPGIFISRLVPGGLAQSTGLLAVNDEVLEVNGIEVSGKSLDQVTDMMIANSRNLIITVRPANQRNN
Q: Which results are given for B1?
A: binding result [1]: binds; binding result (MBP–Morg1): binds
